# Experimental data as given in article PMC8616905.
# Read-outs that look alike come from different tables or passages of the source.
# What was measured:
# [1] = biological target: Ago2 (guide-loaded) (human) (UniProt Q9UKV8); assay: EMSA
# [2] = biological target: Ago2 (guide-loaded) (human) (UniProt Q9UKV8); assay: koff measurement
# Chain of Ago2 (guide-loaded) (human) (Q9UKV8 whole entry): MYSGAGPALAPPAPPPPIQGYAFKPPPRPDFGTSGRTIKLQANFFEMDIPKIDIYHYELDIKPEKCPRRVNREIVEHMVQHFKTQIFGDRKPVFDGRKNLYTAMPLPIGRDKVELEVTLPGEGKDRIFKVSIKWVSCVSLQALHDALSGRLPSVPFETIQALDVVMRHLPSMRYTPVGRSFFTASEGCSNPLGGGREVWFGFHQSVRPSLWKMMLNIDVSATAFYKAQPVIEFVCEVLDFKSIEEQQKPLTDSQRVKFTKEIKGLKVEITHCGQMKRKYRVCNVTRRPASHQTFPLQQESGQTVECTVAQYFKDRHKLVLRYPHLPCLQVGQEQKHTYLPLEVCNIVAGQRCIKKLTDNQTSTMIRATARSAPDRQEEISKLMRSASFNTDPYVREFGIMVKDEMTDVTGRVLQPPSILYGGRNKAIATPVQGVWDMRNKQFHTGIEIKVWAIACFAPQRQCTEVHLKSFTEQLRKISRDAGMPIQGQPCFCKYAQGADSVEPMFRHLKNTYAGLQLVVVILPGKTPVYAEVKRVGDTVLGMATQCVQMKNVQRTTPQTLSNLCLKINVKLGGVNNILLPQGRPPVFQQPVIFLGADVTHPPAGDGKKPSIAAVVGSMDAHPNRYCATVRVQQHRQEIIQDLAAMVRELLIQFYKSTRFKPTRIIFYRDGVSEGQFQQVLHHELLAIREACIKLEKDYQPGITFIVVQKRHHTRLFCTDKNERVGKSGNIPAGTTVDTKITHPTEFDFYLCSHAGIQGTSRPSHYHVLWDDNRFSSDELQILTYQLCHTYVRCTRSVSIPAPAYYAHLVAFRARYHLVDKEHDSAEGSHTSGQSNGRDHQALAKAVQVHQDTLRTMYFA
substance,measurement,setting,value
HCV 5' UTR deltaSL1 + miR-122 guide,Kd,[1],0.058 nM
Site-1 WT + miR-122 guide,binding signal (relative koff (reference)),[2],1
Site-1 deltaSL1 (A4 bridge) + miR-122 guide,koff fold change (fold slower koff than Site-1 WT),[2],6
Site-1 t9 abasic + miR-122 guide,koff fold change (fold slower koff than Site-1 WT),[2]; abasic nucleotide at t9 (G21),3
